# Test results reported in patent publication US20180371091A1 (JOUNCE THERAPEUTICS, published 2018).
# Where a chain is given by its changes, count along the chain named.
# T1: hICOSL-mG2a (human; mouse, UniProt O75144 19-256, limits assumed)
# T1 construct: also called hICOSL-mG2a Fc; not shown: mouse IgG2a Fc
# T1 sequence (looked up): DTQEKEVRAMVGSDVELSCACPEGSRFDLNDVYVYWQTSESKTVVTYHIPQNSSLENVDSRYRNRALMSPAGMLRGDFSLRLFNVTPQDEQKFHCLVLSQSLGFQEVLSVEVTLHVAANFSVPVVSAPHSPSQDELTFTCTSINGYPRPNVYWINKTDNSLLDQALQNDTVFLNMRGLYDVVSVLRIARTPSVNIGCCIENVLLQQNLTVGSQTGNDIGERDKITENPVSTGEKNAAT
# T2: cynomolgus ICOS-Fc (homodimeric, bivalent) (cynomolgus monkey, UniProt Q9Y6W8 21-140 (human entry))
# T2 construct: also called cynoICOS-Fc; cyno ICOS-Fc; not shown: human IgG1 Fc (IgG1 backbone)
# T2 chain: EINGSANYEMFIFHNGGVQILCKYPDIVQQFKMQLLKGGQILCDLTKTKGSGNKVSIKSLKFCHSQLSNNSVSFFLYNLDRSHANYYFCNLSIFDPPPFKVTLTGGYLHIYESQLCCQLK
# T3: monovalent, heterodimeric human ICOS-Fc (human)
# T3 construct: Make-up of the heterodimer is not described; also called Monomeric hICOS; monomeric form of human ICOS; not shown: The human IgG1 Fc fused to ICOS, and the partner Fc chain of the heterodimer
# T3 chain: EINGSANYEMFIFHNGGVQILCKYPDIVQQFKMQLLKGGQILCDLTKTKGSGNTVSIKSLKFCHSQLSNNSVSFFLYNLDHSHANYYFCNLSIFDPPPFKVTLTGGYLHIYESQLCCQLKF
# T4: mouse ICOS-hFc (homodimeric, bivalent) (mouse; human, UniProt Q9WVS0 21-142)
# T4 construct: also called mICOS-hFc; mouse ICOS-Fc; not shown: human IgG1 Fc (IgG1 backbone)
# T4 sequence: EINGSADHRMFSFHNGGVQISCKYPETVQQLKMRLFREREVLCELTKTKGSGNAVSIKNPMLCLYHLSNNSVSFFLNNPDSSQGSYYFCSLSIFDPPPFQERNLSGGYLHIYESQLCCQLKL
# T5: human CTLA-4 Fc fusion (dimeric) (human, UniProt P16410 37-162)
# T5 construct: not shown: Fc part not described
# T5 sequence (looked up): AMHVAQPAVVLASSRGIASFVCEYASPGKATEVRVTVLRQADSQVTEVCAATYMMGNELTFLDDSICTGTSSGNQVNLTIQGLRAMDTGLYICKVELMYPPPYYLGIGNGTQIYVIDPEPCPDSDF
# T6: mouse CD28 Fc fusion (dimeric) (mouse, UniProt P31041 20-150)
# T6 construct: not shown: Fc part not described
# T6 sequence (looked up): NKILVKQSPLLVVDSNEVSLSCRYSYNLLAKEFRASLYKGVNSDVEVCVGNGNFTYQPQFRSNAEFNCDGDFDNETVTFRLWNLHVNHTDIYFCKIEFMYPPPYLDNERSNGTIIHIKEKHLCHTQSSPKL
# T7: human BTLA Fc fusion (dimeric) (human, UniProt Q7Z6A9 31-157)
# T7 construct: not shown: Fc part not described
# T7 sequence (looked up): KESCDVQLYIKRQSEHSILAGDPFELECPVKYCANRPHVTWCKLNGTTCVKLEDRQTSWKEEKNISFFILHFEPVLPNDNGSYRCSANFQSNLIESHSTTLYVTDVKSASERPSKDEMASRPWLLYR
# T8: mouse BTLA Fc fusion (dimeric) (mouse, UniProt Q7TSA3 30-183)
# T8 construct: not shown: Fc part not described
# T8 sequence (looked up): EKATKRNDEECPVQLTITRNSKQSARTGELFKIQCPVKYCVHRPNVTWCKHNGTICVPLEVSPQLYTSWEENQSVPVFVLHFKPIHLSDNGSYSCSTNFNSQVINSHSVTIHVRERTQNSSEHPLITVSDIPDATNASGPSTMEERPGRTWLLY
# T9: mouse PD-1 Fc fusion (dimeric) (mouse, UniProt Q02242 25-167)
# T9 construct: not shown: Fc part not described
# T9 sequence (looked up): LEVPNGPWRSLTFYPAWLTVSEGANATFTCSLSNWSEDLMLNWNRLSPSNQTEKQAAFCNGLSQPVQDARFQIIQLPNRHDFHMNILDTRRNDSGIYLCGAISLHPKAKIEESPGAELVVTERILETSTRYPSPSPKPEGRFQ
# T10: mouse ICOS (full length, on cells) (mouse, UniProt Q9WVS0 21-200)
# T10 construct: also called CHO-mICOS; mouse ICOS+ CHO cells
# T10 sequence: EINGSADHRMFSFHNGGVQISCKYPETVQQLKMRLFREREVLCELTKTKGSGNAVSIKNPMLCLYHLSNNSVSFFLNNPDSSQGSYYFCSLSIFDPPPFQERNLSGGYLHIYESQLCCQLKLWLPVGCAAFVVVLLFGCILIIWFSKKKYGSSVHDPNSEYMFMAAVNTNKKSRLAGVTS
# B1: 7F12 (antibody, V domains shown)
# VH: EVQLVESGGGLVKPGGSLTLSCAASGFTFSDYWMDWVRQGPGKGLEWVGNIDEDGSTTYYAPFVKGRFTISRDNAKKTLYLQMNSVKSEDTATYYCTRWGRYAFDSWGQGTLVTVSS
# VL: DIVMTQSPSSLAVSPGDKVTINCKSSQSLLSGNYNYLAWYQQKTGQAPKLLIFYASTRHTGVPDRFMGSGSGTDFSLTINSFQTEDLGDYYCQHHYSTPPTFGPGTKLEIK
# notes: Armenian hamster monoclonal tested as IgG; also called hamster anti-ICOS 7F12
# B2: 37A10 (antibody, V domains shown)
# VH: B1 VH with T19K, G40A, T57I, Y59E, A61S, A75V, K77N, Y102F, A103G
# VL: DIVMTQSPSSLAVSAGDRVTINCKSSQSLLSGSFNYLTWYQQKTGQAPKLLIFYASTRHTGVPDRFMGSGSGTDFTLTINSFQTEDLGDYYCHHHYNAPPTFGPGTKLELR
# notes: Armenian hamster monoclonal tested as IgG; also called hamster anti-ICOS 37A10
# B3: 16G10 (antibody, V domains shown)
# VH: EVQLVESGGGLVKPGGSLKLSCAASGFTFSDYWMDWVRQAPGKGLEWVGNIDHDGNIINFAPSVKGRFTISRDNAKNTLYLQMNSVKSEDTATYYCARWGHYAFDSWGQGTLVTVSS
# VL: B1 VL with P15A, G32S, N33G, A38I, M67I, S76T, N80T, T98S
# notes: Armenian hamster monoclonal tested as IgG; also called hamster anti-ICOS 16G10
# B4: 36E10 (antibody, V domains shown)
# VH: B1 VH with T19K, G40A, T57I, Y59E, A61S, A75V, K77N, T78I, Y102F
# VL: B2 VL with A15P, N35H
# notes: Armenian hamster monoclonal tested as IgG; also called hamster anti-ICOS 36E10
# B5: human ICOS-hFc (homodimeric, bivalent) (Fc fusion)
# chain: T3 chain
# notes: also called hICOS-Fc; hICOS-hFc; not shown: human IgG1 Fc (IgG1 backbone)
# Target: B5
# Test: BLI (Octet RED96), full-length IgG vs homodimeric ICOS-Fc (avid)
# Method: (§1) Affinity measurements were conducted using Bio-Layer Interferometry (BLI) technology (ForteBio Octet® RED96). The monovalent affinities were generated with IgG versions of the antibodies with monovalent, heterodimeric forms of the ICOS receptor. The avid affinities were generated using full-length IgGs against homodimeric forms of the ICOS receptor.
Kd,koff,kon,Binder
0.0342 nM,2.3e-05 s⁻¹,674000 M⁻¹ s⁻¹,B1
0.0342 nM,2.3e-05 s⁻¹,674000 M⁻¹ s⁻¹,B2
< 0.001 nM,< 1e-07 s⁻¹,1.01e+06 M⁻¹ s⁻¹,B3
< 0.001 nM,< 1e-07 s⁻¹,626000 M⁻¹ s⁻¹,B4

# Target: T1, hICOSL-mG2a
# Test: BLI, bivalent binding to homodimeric ICOS-Fc
Kd,koff,kon,Binder
0.362 nM,0.000341 s⁻¹,941000 M⁻¹ s⁻¹,B5

# Target: B5
# Test: BLI, bivalent binding to homodimeric ICOS-Fc
# Method: (§2) Cross-reactivity measurements were conducted using BLI technology with antibody panels being screened for binding to human, mouse, and cynomolgus ICOS-Fc fusions (homodimeric, bivalent forms).
Kd,koff,kon,Binder
0.0342 nM,2.3e-05 s⁻¹,674000 M⁻¹ s⁻¹,B1
< 0.001 nM,< 1e-07 s⁻¹,625000 M⁻¹ s⁻¹,B2
< 0.001 nM,< 1e-07 s⁻¹,626000 M⁻¹ s⁻¹,B3
< 0.001 nM,< 1e-07 s⁻¹,617000 M⁻¹ s⁻¹,B4

# Target: T2, cynomolgus ICOS-Fc (homodimeric, …)
# Test: BLI, bivalent binding to homodimeric ICOS-Fc
# Method: as §2
Kd,koff,kon,Binder
< 0.001 nM,< 1e-07 s⁻¹,585000 M⁻¹ s⁻¹,B1
< 0.001 nM,< 1e-07 s⁻¹,712000 M⁻¹ s⁻¹,B2
< 0.001 nM,< 1e-07 s⁻¹,647000 M⁻¹ s⁻¹,B3
< 0.001 nM,< 1e-07 s⁻¹,697000 M⁻¹ s⁻¹,B4

# Target: T3, monovalent, heterodimeric human ICOS-Fc
# Test: BLI (Octet RED96), IgG vs monovalent heterodimeric ICOS-Fc
# Method: as §1
Kd,koff,kon,Binder
13.2 nM,0.00175 s⁻¹,133000 M⁻¹ s⁻¹,B1
3.18 nM,0.000479 s⁻¹,151000 M⁻¹ s⁻¹,B2
4.37 nM,0.000712 s⁻¹,163000 M⁻¹ s⁻¹,B3
1.59 nM,0.000228 s⁻¹,–,B4

# Target: T4, mouse ICOS-hFc (homodimeric, bivalent)
# Test: BLI
# Method: as §2
row,binding result,Binder
1,binds,B1
2,binds,B2
3,binds,B3
4,binds,B4

# Target: T5, human CTLA-4 Fc fusion (dimeric)
# Test: binding to dimeric Fc fusions of CD28 family members
# Method: (§3) To further assess the specificity of the anti-ICOS antibodies, the antibodies were screened for binding to additional members of the CD28 protein family (CD28, BTLA, PD-1 and CTLA-4). […] Specifically, binding to Fc fusions (of CD28, BTLA, PD-1 and CTLA-4) in dimeric forms was evaluated, and no binding was observed. For a subset of the CD28 family members, mouse or human protein was over-expressed on the surface of HEK293 and CHOK1 cells. No binding of antibody above background relative to untransduced parental cells was observed.
row,binding result,Binder
1,no binding,B1
2,no binding,B2
3,no binding,B3
4,no binding,B4

# Target: T6, mouse CD28 Fc fusion (dimeric)
# Test: as above
# Method: as §3
row,binding result,Binder
1,no binding,B1
2,no binding,B2
3,no binding,B3
4,no binding,B4

# Target: T7, human BTLA Fc fusion (dimeric)
# Test: as above
# Method: as §3
row,binding result,Binder
1,no binding,B1
2,no binding,B2
3,no binding,B3
4,no binding,B4

# Target: T8, mouse BTLA Fc fusion (dimeric)
# Test: as above
# Method: as §3
row,binding result,Binder
1,no binding,B1
2,no binding,B2
3,no binding,B3
4,no binding,B4

# Target: T11, human PD-1 Fc fusion (dimeric) (human, UniProt Q15116 25-167)
# T11 construct: not shown: Fc part not described
# T11 sequence (Q15116 25-167): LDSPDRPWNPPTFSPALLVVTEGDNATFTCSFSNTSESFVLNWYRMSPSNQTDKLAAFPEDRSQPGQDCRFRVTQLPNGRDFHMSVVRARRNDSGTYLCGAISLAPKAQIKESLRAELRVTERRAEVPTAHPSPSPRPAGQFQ
# Test: as above
# Method: as §3
row,binding result,Binder
1,no binding,B1
2,no binding,B2
3,no binding,B3
4,no binding,B4

# Target: T12, mouse CTLA-4 Fc fusion (dimeric) (mouse, UniProt P09793 36-162)
# T12 construct: not shown: Fc part not described
# Test: as above
# Method: as §3
row,binding result,Binder
1,no binding,B1
2,no binding,B2
3,no binding,B3
4,no binding,B4

# Target: T9, mouse PD-1 Fc fusion (dimeric)
# Test: as above
# Method: as §3
row,binding result,Binder
1,no binding,B1
2,no binding,B2
3,no binding,B3
4,no binding,B4

# Target: T13, human CD28 Fc fusion (dimeric) (human, UniProt P10747 19-152)
# T13 construct: not shown: Fc part not described
# T13 sequence (P10747 19-152): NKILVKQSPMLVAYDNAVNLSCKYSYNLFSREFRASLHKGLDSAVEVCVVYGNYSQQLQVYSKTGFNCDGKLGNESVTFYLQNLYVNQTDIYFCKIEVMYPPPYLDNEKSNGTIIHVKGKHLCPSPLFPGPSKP
# Test: as above
# Method: as §3
row,binding result,Binder
1,no binding,B1
2,no binding,B2
3,no binding,B3
4,no binding,B4

# Target: T10, mouse ICOS (full length, on cells)
# Test: flow cytometry on ICOS+ CHO cells
# Source text: To assess specificity, binding to human ICOS+ CHO cells and mouse ICOS+ CHO cells was individually analyzed by flow cytometry. As a control to screen out pan-reactive antibodies, staining on CHO cells lacking ICOS receptor expression was also examined. All of the selected antibodies bound to human and mouse ICOS+ CHO cells, and not to CHO cells lacking ICOS expression.
row,binding result,Binder
1,binds,B1
2,binds,B2
3,binds,B3
4,binds,B4
